From the supplement of paper PMC10567573 come the findings set out here.

First the molecules themselves.
B1: RSPH3 (parent)
chain: FIPAKTGKDVATQILEGELFDFDL
B2: POMT2 (parent)
chain: VKYNSCADRPFSAPWWFWLSLTGV
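Also: lentivirally expressed fusions sorted by FACS into six bins by GFP to DsRed ratio, PSI derived from sequencing read proportions per bin multiplied by bin number.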

The variants in the first series derive from B1. The series can be described thus: protein stability index of a GFP-peptide fusion (GPS, HEK-293T) (PSI 1-6); higher = more stable. The note with it: c terminus: a fixed tail appended.
As for FIPAKTGKDVATQILEGELFDSDL, the protein stability index amounted to 2.86.
Take FIPAKTGKDVATQILEGKLFDFDL: the protein stability index was 2.2.
Same read-out and setting: with FIPAKTGKDVATQILEGWLFDFDL the figure was 1.95.
The same measure, in the same setting: the figure for FIPAKTGKDVATQILEGRLFDFDL is 2.46.
Same read-out and setting: with FIPAKTGKDVATQILEGDLFDFDL the figure was 2.04; with FIPAKTGKDVATQILEGALFDFDL, 1.74.
In the case of FIPAKTGKDVATQILEGCLFDFDL, the protein stability index was 2.17.
On to FIPAKTGKDVATQILEGQLFDFDL, for which the protein stability index stood at 2.06.
For FIPAKTGKDVATQILEGMLFDFDL, the protein stability index worked out at 2.73.
Regarding FIPAKTGKDVATQILEGHLFDFDL, the protein stability index was found to be 2.
Same read-out and setting: with FIPAKTGKDVATQILEGSLFDFDL the figure was 2; with FIPAKTGKDVATQILEGGLFDFDL, 1.71; with FIPAKTGKDVATQILEGNLFDFDL, 2.38.
Still for that read-out and setting: with FIPAKTGKDVATQILEGFLFDFDL the figure was 3.44; with FIPAKTGKDVATQILEGVLFDFDL, 2.46; with FIPAKTGKDVATQILEGLLFDFDL, 2.42.
Same read-out and setting: with FIPAKTGKDVATQILEGYLFDFDL the figure was 1.59; with FIPAKTGKDVATQILEGTLFDFDL, 2.62; with FIPAKTGKDVATQILEGILFDFDL, 2.6.
For the variant FIPAKTGKDVATQILEGPLFDFDL, the protein stability index turned out to be 1.87.
As to FIPAKTGKDVATQIPEGELFDFDL, the protein stability index came out at 2.02.
In the case of FIPAKTGKDVATQIKEGELFDFDL, the protein stability index was determined as 2.07.
For the variant FIPAKTGKDVATQIYEGELFDFDL, the protein stability index is 1.76.
On the same count and under the same terms, with FIPAKTGKDVATQIQEGELFDFDL the figure was 1.96; with FIPAKTGKDVATQISEGELFDFDL, 2.03; with FIPAKTGKDVATQIIEGELFDFDL, 1.87.
As to FIPAKTGKDVATQIVEGELFDFDL, the protein stability index was 1.94.
Same read-out and setting: with FIPAKTGKDVATQIREGELFDFDL the figure was 2.75.
Same read-out and setting: the figure for FIPAKTGKDVATQIHEGELFDFDL is 2.12; for FIPAKTGKDVATQIMEGELFDFDL it is 2.03; for FIPAKTGKDVATQIWEGELFDFDL it is 2.75.
FIPAKTGKDVATQINEGELFDFDL: the protein stability index stood at 2.
Still for that read-out and setting: with FIPAKTGKDVATQITEGELFDFDL the figure was 1.66.
Same read-out and setting: the figure for FIPAKTGKDVATQILEGEWFDFDL is 1.96; for FIPAKTGKDVATQILEGEMFDFDL it is 1.83.
On the same count and under the same terms, the figure for FIPAKTGKDVATQILEGERFDFDL is 1.6.
Regarding FIPAKTGKDVATQILEGENFDFDL, the protein stability index is 1.93.
For FIPAKTGKDVATQILEGEVFDFDL, the protein stability index amounted to 1.74.
The same measure, in the same setting: the figure for FIPAKTGKDVATQILEGETFDFDL is 2.28.
The same measure, in the same setting: the figure for FIPAKTGKDVATQILEGEAFDFDL is 2.2; for FIPAKTGKDVATQILEGEPFDFDL it is 1.98; for FIPAKTGKDVATQILEGEQFDFDL it is 1.66.
The same measure, in the same setting: the figure for FIPAKTGKDVATQILEGEKFDFDL is 2.21.
On to FIPAKTGKDVATQILEGEIFDFDL, for which the protein stability index is 2.05.
Same read-out and setting: the figure for FIPAKTGKDVATQILEGEFFDFDL is 1.7; for FIPAKTGKDVATQILEGEYFDFDL it is 2.02; for FIPAKTGKDVATQILEGESFDFDL it is 1.98.
On the same count and under the same terms, with FIPAKTGKDVATQILEGEEFDFDL the figure was 2.2; with FIPAKTGKDVATQILEGEDFDFDL, 2.59.
On the same count and under the same terms, with FIPAKTGKDVATQILEGECFDFDL the figure was 1.83.
Turning to FIPAKTGKDVATQILEGEHFDFDL, the protein stability index turned out to be 2.01.
With FIPAKTGKDVATQILEGEGFDFDL, the protein stability index worked out at 2.31.
On the same count and under the same terms, with FIPAKTGKDVATQILEGELFDFPL the figure was 2.08; with FIPAKTGKDVATQILEGELFDFHL, 1.87; with FIPAKTGKDVATQILEGELFDFLL, 1.98.
On the same count and under the same terms, the figure for FIPAKTGKDVATQILEGELFDFQL is 1.99; for FIPAKTGKDVATQILEGELFDFNL it is 1.84.
For FIPAKTGKDVATQILEGELFDFKL, the protein stability index turned out to be 2.12.
The same measure, in the same setting: the figure for FIPAKTGKDVATQILEGELFDFRL is 1.42; for FIPAKTGKDVATQILEGELFDFEL it is 1.89.
The same measure, in the same setting: with FIPAKTGKDVATQILEGELFDFFL the figure was 1.34.
Still for that read-out and setting: with FIPAKTGKDVATQILEGELFDFTL the figure was 2.24; with FIPAKTGKDVATQILEGELFDFWL, 2.51.
With FIPAKTGKDVATQILEGELFDFAL, the protein stability index was 2.12.
Same read-out and setting: with FIPAKTGKDVATQILEGELFDFGL the figure was 2.02.
The same measure, in the same setting: the figure for FIPAKTGKDVATQILEGELFDFYL is 2.24; for FIPAKTGKDVATQILEGELFDFIL it is 1.24; for FIPAKTGKDVATQILEGELFDFVL it is 1.59.
On to FIPAKTGKDVATQILEGELFDFML, for which the protein stability index was 1.42.
Take FIPAKTGKDVATQILEGELFDFSL: the protein stability index amounted to 2.
The same measure, in the same setting: with FIPAKTGKDVATQILEGELFDFCL the figure was 2.08; with FIPAKTGKDVATQILEGELDDFDL, 2.92.
Turning to FIPAKTGKDVATQILEGELLDFDL, the protein stability index worked out at 2.25.
On the same count and under the same terms, with FIPAKTGKDVATQILEGELRDFDL the figure was 1.86; with FIPAKTGKDVATQILEGELYDFDL, 2.01; with FIPAKTGKDVATQILEGELEDFDL, 2.6.
For the variant FIPAKTGKDVATQILEGELPDFDL, the protein stability index came to 2.37.
Still for that read-out and setting: the figure for FIPAKTGKDVATQILEGELCDFDL is 2.16; for FIPAKTGKDVATQILEGELVDFDL it is 2.71.
Same read-out and setting: with FIPAKTGKDVATQILEGELNDFDL the figure was 2.76; with FIPAKTGKDVATQILEGELMDFDL, 1.88; with FIPAKTGKDVATQILEGELIDFDL, 1.72.
Still for that read-out and setting: with FIPAKTGKDVATQILEGELSDFDL the figure was 2.52.
Take FIPAKTGKDVATQILEGELGDFDL: the protein stability index amounted to 1.84.
Still for that read-out and setting: with FIPAKTGKDVATQILEGELKDFDL the figure was 2.08.
The same measure, in the same setting: with FIPAKTGKDVATQILEGELTDFDL the figure was 2.13.
On the same count and under the same terms, the figure for FIPAKTGKDVATQILEGELQDFDL is 2.44; for FIPAKTGKDVATQILEGELHDFDL it is 1.59.
As for FIPAKTGKDVATQILEGELADFDL, the protein stability index was determined as 2.47.
For the variant FIPAKTGKDVATQILEGELWDFDL, the protein stability index amounted to 2.26.

A further series covers variants of B2. Described as above. As to conditions: c terminus: a fixed tail appended.
As to AKYNSCADRPFSAPWWFWLSLTGV, the protein stability index came out at 3.3.
Same read-out and setting: the figure for HKYNSCADRPFSAPWWFWLSLTGV is 1.1.
On the same count and under the same terms, with LKYNSCADRPFSAPWWFWLSLTGV the figure was 1.66; with CKYNSCADRPFSAPWWFWLSLTGV, 2.99.
